The values that follow come from patent US20080194482A1, “Selective Apac2 Receptor Peptide Agonists” (priority 2005, published 2008).

Numbered stars: 1 amine (or outer) side, 2 acyl side, 3 side chain; on linkers, the order of the positions; unused ones are H or OH. Square brackets hold non-standard residues; d marks the D form. Ends that are not written are not given here. Peptide text beside a SMILES is read from it. * marks the point of attachment. Tyr(OMe) = O-methyl-tyrosine, COc1ccc(C[C@H](N[*:1])C(=O)[*:2])cc1; Orn = NCCC[C@H](N)C(=O)O; Hexanoyl = CCCCCC(=O)*; Aib = CC(C)(N)C(=O)O Some results are limits rather than exact numbers.

Assay [1] deals with T1, human PAC1 (Homo sapiens, UniProt P41586).
T1 construct: expressed in transfected cells
T1 sequence (P41586 21-468): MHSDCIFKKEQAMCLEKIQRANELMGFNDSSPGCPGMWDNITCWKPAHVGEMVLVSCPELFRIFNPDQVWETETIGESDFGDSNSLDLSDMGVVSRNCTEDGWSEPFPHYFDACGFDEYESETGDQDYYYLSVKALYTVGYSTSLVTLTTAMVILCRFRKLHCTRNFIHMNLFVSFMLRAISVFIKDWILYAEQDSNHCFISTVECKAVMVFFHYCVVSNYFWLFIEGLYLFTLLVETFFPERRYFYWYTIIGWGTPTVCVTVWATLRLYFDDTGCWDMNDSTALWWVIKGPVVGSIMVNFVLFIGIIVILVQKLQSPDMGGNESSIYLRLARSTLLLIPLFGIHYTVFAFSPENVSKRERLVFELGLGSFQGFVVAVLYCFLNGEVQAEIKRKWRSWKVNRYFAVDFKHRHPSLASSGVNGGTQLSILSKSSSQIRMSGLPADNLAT
Kind of assay: Filter binding assay, 125I-labeled PACAP-27 tracer, PAC1 membranes. The settings on record: read-out: Human PAC1 Receptor Binding (IC50; nM).

The target of assay [2] is T2, human VPAC2 receptor (human, UniProt P41587 24-438).
T2 sequence (looked up): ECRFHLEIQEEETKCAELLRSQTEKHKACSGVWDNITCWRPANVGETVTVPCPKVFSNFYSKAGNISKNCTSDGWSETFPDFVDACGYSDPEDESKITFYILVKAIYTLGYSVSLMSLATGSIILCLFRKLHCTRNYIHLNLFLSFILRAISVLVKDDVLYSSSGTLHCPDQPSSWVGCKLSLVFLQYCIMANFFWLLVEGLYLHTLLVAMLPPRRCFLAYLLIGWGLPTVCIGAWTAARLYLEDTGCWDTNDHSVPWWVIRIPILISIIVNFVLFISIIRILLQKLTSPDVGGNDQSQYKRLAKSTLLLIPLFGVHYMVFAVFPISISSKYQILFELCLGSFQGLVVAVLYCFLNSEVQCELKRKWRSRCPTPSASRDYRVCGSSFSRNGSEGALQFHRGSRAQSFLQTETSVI
Briefly: cell-based or functional assay.

The target of assay [3] is T3, rat VPAC2 receptor (rat, UniProt P35000 23-437).
T3 sequence (looked up): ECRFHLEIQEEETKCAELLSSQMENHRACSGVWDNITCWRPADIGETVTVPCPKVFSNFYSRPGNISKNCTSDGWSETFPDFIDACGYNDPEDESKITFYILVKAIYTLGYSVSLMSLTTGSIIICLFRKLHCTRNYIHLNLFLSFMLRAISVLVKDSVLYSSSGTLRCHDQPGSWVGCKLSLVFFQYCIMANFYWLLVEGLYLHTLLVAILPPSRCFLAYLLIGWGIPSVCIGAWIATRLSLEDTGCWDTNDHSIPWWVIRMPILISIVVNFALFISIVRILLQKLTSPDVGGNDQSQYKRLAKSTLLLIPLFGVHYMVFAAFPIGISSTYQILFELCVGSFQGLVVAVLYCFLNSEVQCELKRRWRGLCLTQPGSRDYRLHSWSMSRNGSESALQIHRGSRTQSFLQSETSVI
Kind of assay: cell-based or functional assay.

Assay [4] has as its target T4, rat VPAC1 receptor (rat, UniProt P30083 31-459).
T4 sequence (looked up): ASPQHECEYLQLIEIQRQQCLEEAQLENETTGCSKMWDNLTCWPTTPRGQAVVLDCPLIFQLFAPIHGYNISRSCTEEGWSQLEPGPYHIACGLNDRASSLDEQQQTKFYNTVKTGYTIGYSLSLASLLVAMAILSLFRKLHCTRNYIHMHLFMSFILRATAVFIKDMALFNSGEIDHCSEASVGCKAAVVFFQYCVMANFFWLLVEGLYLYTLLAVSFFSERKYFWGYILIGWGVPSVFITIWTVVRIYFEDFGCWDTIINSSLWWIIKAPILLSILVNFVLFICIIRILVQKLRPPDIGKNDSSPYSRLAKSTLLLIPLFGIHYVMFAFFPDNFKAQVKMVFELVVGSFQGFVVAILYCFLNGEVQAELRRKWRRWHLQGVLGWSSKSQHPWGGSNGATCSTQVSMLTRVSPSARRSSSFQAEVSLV
Briefly: cell-based or functional assay.

As usually defined, the IC50 is the concentration at which inhibition is half-maximal. As for `CCCCCC(=O)N[C@@H](Cc1c[nH]cn1)C(=O)N[C@@H](CO)C(=O)N[C@@H](CC(=O)O)C(=O)N[C@@H](C)C(=O)N[C@H](C(=O)N[C@@H](Cc1ccccc1)C(=O)N[C@H](C(=O)N[C@@H](CC(=O)O)C(=O)N[C@@H](CC(N)=O)C(=O)N[C@@H](Cc1ccc(O)cc1)C(=O)N[C@H](C(=O)N[C@@H](CCCN)C(=O)N[C@@H](CC(C)C)C(=O)N[C@@H](CCCNC(=N)N)C(=O)NC(C)(C)C(=O)N[C@@H](CCC(N)=O)C(=O)N[C@H](C(=O)N[C@@H](C)C(=O)N[C@@H](C)C(=O)NC(C)(C)C(=O)N[C@@H](CCCCN)C(=O)N[C@@H](CO)C(=O)N[C@@H](CC(C)C)C(=O)N[C@@H](CCC(N)=O)C(=O)N[C@@H](CO)C(=O)N[C@H](C(=O)N[C@@H](CCCN)C(=O)N[C@@H](CC(N)=O)C(=O)N[C@@H](CCCN)C(=O)NCC(=O)NCC(=O)N1CCC[C@H]1C(=O)N[C@@H](CO)C(=O)N[C@@H](CO)C(=O)NCC(=O)N[C@@H](C)C(=O)N1CCC[C@H]1C(=O)N1CCC[C@H]1C(=O)N1CCC[C@H]1C(=O)N[C@@H](CO)C(=O)O)[C@@H](C)CC)C(C)C)[C@@H](C)O)[C@@H](C)O)C(C)C` [Agonist P385] (Hexanoyl-HSDAVFTDNYT[Orn]LR[Aib]QVAA[Aib]KSLQSI[Orn]N[Orn]GGPSSGAPPPS-OH; C-terminus assumed), the IC50 in assay [1] was above 25000 nM.
Same read-out and setting: to `CCCCCC(=O)N[C@@H](Cc1c[nH]cn1)C(=O)N[C@@H](CO)C(=O)N[C@@H](CC(=O)O)C(=O)N[C@@H](C)C(=O)N[C@H](C(=O)N[C@@H](Cc1ccccc1)C(=O)N[C@H](C(=O)N[C@@H](CC(=O)O)C(=O)N[C@@H](CC(N)=O)C(=O)N[C@@H](Cc1ccc(O)cc1)C(=O)N[C@H](C(=O)N[C@@H](CCCN)C(=O)N[C@@H](CC(C)C)C(=O)N[C@@H](CCCNC(=N)N)C(=O)NC(C)(C)C(=O)N[C@@H](CCC(N)=O)C(=O)N[C@@H](CO)C(=O)N[C@@H](C)C(=O)N[C@@H](C)C(=O)NC(C)(C)C(=O)N[C@@H](CCCCN)C(=O)N[C@@H](Cc1ccc(O)cc1)C(=O)N[C@@H](CC(C)C)C(=O)N[C@@H](CCC(N)=O)C(=O)N[C@@H](CO)C(=O)N[C@H](C(=O)N[C@@H](CCCN)C(=O)N[C@@H](CC(N)=O)C(=O)N[C@@H](CCCN)C(=O)NCC(=O)NCC(=O)N1CCC[C@H]1C(=O)N[C@@H](CO)C(=O)N[C@@H](CO)C(=O)NCC(=O)N[C@@H](C)C(=O)N1CCC[C@H]1C(=O)N1CCC[C@H]1C(=O)N1CCC[C@H]1C(=O)N[C@@H](CO)C(=O)O)[C@@H](C)CC)[C@@H](C)O)[C@@H](C)O)C(C)C` [Agonist P389] (Hexanoyl-HSDAVFTDNYT[Orn]LR[Aib]QSAA[Aib]KYLQSI[Orn]N[Orn]GGPSSGAPPPS-OH; C-terminus assumed) belongs above 25000 nM.
Still for that read-out and setting: with `CCCCCC(=O)N[C@@H](Cc1c[nH]cn1)C(=O)N[C@@H](CO)C(=O)N[C@@H](CC(=O)O)C(=O)N[C@@H](C)C(=O)N[C@H](C(=O)N[C@@H](Cc1ccccc1)C(=O)N[C@H](C(=O)N[C@@H](CC(=O)O)C(=O)N[C@@H](CO)C(=O)N[C@@H](Cc1ccc(O)cc1)C(=O)N[C@H](C(=O)N[C@@H](CCCN)C(=O)N[C@@H](CC(C)C)C(=O)N[C@@H](CCCNC(=N)N)C(=O)NC(C)(C)C(=O)N[C@@H](CCC(N)=O)C(=O)N[C@H](C(=O)N[C@@H](C)C(=O)N[C@@H](C)C(=O)NC(C)(C)C(=O)N[C@@H](CCCCN)C(=O)N[C@@H](Cc1ccc(O)cc1)C(=O)N[C@@H](CC(C)C)C(=O)N[C@@H](CCC(N)=O)C(=O)N[C@@H](CO)C(=O)N[C@H](C(=O)N[C@@H](CCCN)C(=O)N[C@@H](CC(N)=O)C(=O)N[C@@H](CCCN)C(=O)NCC(=O)NCC(=O)N1CCC[C@H]1C(=O)N[C@@H](CO)C(=O)N[C@@H](CO)C(=O)NCC(=O)N[C@@H](C)C(=O)N1CCC[C@H]1C(=O)N1CCC[C@H]1C(=O)N1CCC[C@H]1C(=O)N[C@@H](CO)C(=O)O)[C@@H](C)CC)C(C)C)[C@@H](C)O)[C@@H](C)O)C(C)C` [Agonist P392] (Hexanoyl-HSDAVFTDSYT[Orn]LR[Aib]QVAA[Aib]KYLQSI[Orn]N[Orn]GGPSSGAPPPS-OH; C-terminus assumed) the figure was above 25000 nM; with `CCCCCC(=O)N[C@@H](Cc1c[nH]cn1)C(=O)N[C@@H](CO)C(=O)N[C@@H](CCC(=O)O)C(=O)N[C@@H](C)C(=O)N[C@H](C(=O)N[C@@H](Cc1ccccc1)C(=O)N[C@H](C(=O)N[C@@H](CCC(=O)O)C(=O)N[C@@H](CCC(N)=O)C(=O)N[C@@H](Cc1ccc(OC)cc1)C(=O)N[C@H](C(=O)N[C@@H](CCCN)C(=O)N[C@@H](CC(C)C)C(=O)N[C@@H](CCCNC(=N)N)C(=O)NC(C)(C)C(=O)N[C@@H](CCC(N)=O)C(=O)N[C@@H](CC(C)C)C(=O)N[C@@H](C)C(=O)N[C@@H](C)C(=O)NC(C)(C)C(=O)N[C@@H](CCCN)C(=O)N[C@@H](Cc1ccc(O)cc1)C(=O)N[C@@H](CC(C)C)C(=O)N[C@@H](CCC(N)=O)C(=O)N[C@@H](CO)C(=O)N[C@H](C(=O)N[C@@H](CCCN)C(=O)N[C@@H](CCCN)C(=O)NCC(=O)NCC(=O)N1CCC[C@H]1C(=O)N[C@@H](CO)C(=O)N[C@@H](CO)C(=O)NCC(=O)N[C@@H](C)C(=O)N1CCC[C@H]1C(=O)N1CCC[C@H]1C(=O)N1CCC[C@H]1C(=O)N[C@@H](CO)C(=O)O)[C@@H](C)CC)[C@@H](C)O)[C@@H](C)O)C(C)C` [Agonist P393] (Hexanoyl-HSEAVFTEQY(Me)T[Orn]LR[Aib]QLAA[Aib][Orn]YLQSI[Orn][Orn]GGPSSGAPPPS-OH; C-terminus assumed), above 25000 nM.
On to HSDAVFTDQYTXLRXQLAAXXYLQSIXXGGPSSGAPPPS (N-terminal hexanoyl (C6); Orn at 12, 21, 27 and 28; Aib at 15 and 20) [VPAC2 receptor peptide agonist P395], for which the “Human VPAC2 Receptor: Alpha Screen (EC50; nM), cAMP generation” value (shortened to “Human VPAC2 Receptor: Alpha Screen”) in assay [2] is 0.15 nM. For the same molecule, in assay [3], the “Rat VPAC2 Receptor: DiscoveRx (EC50; nM), cAMP generation” value (“Rat VPAC2 Receptor: DiscoveRx” for short) turned out to be 0.03 nM. For the same molecule, the “Rat VPAC1 Receptor: DiscoveRx (EC50; nM), cAMP generation” value (shortened to “Rat VPAC1 Receptor: DiscoveRx”) in assay [4] is 0.35 nM.
As to HSDAVFTDQYTXLRXQVAAXXYLQSIXXGGPSSGAPPPS (N-terminal hexanoyl (C6); Orn at 12, 21, 27 and 28; Aib at 15 and 20) [VPAC2 receptor peptide agonist P396], in assay [2], the “Human VPAC2 Receptor: Alpha Screen” value is 0.11 nM. Also, the “Rat VPAC2 Receptor: DiscoveRx” value in assay [3] is 0.05 nM. Moreover, in assay [4], the “Rat VPAC1 Receptor: DiscoveRx” value was 1.05 nM.

B1: VPAC2 receptor peptide agonist P487 (peptide)
peptide: HSDAVFTEQYTXLRXQLAAXXYLQSIXXGGPSSGAPPPS
modifications: N-terminal hexanoyl (C6); Tyr(OMe) at 10; Orn at 12, 21, 27 and 28; Aib at 15 and 20; C-terminal amide (-NH2)
With B1, in assay [2], the “Human VPAC2 Receptor: Alpha Screen” value amounted to 0.24 nM. Besides, the “Rat VPAC2 Receptor: DiscoveRx” value in assay [3] is 0.03 nM. In addition, the “Rat VPAC1 Receptor: DiscoveRx” value in assay [4] stood at 1.42 nM.
Consider Hexanoyl-HSDAVFTDNYTR[Aib]R[Aib]QVAA[Aib]KYLQSIK[Aib]KGGPSSGAPPPS [VPAC2 receptor peptide agonist P405], for which the “Rat VPAC2 Receptor: DiscoveRx” value in assay [3] is 0.04 nM.
On to Hexanoyl-HSEAVFTEQ[Tyr(OMe)]TR[Aib]R[Aib]QLAA[Aib]KYLQSIK[Aib]KGGPSSGAPPPS [VPAC2 receptor peptide agonist P409], for which the “Human VPAC2 Receptor: Alpha Screen” value in assay [2] worked out at 0.19 nM.
In the case of HSDAVFTDNYTXLRXSVAAXKYLQSIXNXGGPSSGAPPPS (N-terminal hexanoyl (C6); Orn at 12, 27 and 29; Aib at 15 and 20) [VPAC2 receptor peptide agonist P390], the “Human VPAC2 Receptor: Alpha Screen” value in assay [2] worked out at 0.12 nM. Moreover, the “Rat VPAC2 Receptor: DiscoveRx” value in assay [3] worked out at 0.09 nM. In addition, the “Rat VPAC1 Receptor: DiscoveRx” value in assay [4] turned out to be 1.34 nM.
Consider Hexanoyl-HSDAVFTDQYTR[Aib]R[Aib]QLAA[Aib]KYLQSIK[Aib]KGGPSSGAPPPS [VPAC2 receptor peptide agonist P407], for which the “Human VPAC2 Receptor: Alpha Screen” value in assay [2] worked out at 0.12 nM. In addition, the “Rat VPAC2 Receptor: DiscoveRx” value in assay [3] stood at 0.03 nM.
